# ± gives the uncertainty stated by the source.
# Test: self-splicing fitness, log relative to wild type (ln ratio); higher = more splicing; Tetrahymena group I intron in knt gene, E. coli kanamycin selection, DiMSum; sequences stand for … in CUCUCU…GGAGGGAAAAGUUAUCAGGCAUGCACCUGGUAGCUAGUCUUUAAACCAAUAGAUUGCAUCGGUUUAAAAGGCAAGACCGUCAAAUUGCGGGAAAGGGGUCAACAGCCGUUCAGUACCAAGUCUCAGGGGAAACUUUGAGAUGGCCUUGCAAAGGGUAUGGUAAUAAGCUGACGGACAUGGUCCUAACCACGCAGCCAAGUCCUAAGUCAACAGAUCUUCUGUUGAUAUGGAUGCAGUUCACAGACUAAAUGUCGGUCGGGGAAGAUGUAUUCUUCUCAUAAGAUAUAGUCGGACCUCUCCUUAAUGGGAGCUAGCGGAUGAAGUGAUGCAACACUGGAGCCGCUGGGAACUAAUUUGUAUGCGAAAGUAUAUUGAUUAGUUUUGGAGUACUCGUGGUCG
# Procedure, shortened: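 DiMSum derived fitness as the error-weighted combination of fold changes across replicates, kanamycin versus no kanamycin, normalised to wild type. E. coli BL21(DE3) held the library, which randomised all eight P1ex-region intron nucleotides within the knt kanamycin-resistance gene on pET-22b(+). Six replicate transformations grew overnight at 37°C or 30°C on LB agar with or without 25 μg/mL kanamycin, also containing 100 μg/mL carbenicillin, 50 μM IPTG and 0.2% rhamnose, and pooled colonies were amplicon-sequenced on an Illumina HiSeq 2500.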
Sequence,self-splicing fitness (ln) (30 °C),self-splicing fitness (ln) (37 °C)
CUGUAGCAAUAUUACGUCCG,-0.133 ± 0.08,0.0507 ± 0.11
UUAUAGCAAUAUUACGGGUA,-2.85 ± 0.2,-1.65 ± 0.19
CAUCAGCAAUAUUACGAGCG,-0.443 ± 0.059,0.466 ± 0.072
CUUCAGCAAUAUUACGGGUU,-4.12 ± 0.24,-2.49 ± 0.23
CUAAAGCAAUAUUACGUUCC,-3.89 ± 0.4,-2.25 ± 0.41
ACUGAGCAAUAUUACGGGAG,-3.29 ± 0.2,-2.74 ± 0.2
AUGGAGCAAUAUUACGUGAA,-2.92 ± 0.27,-2.03 ± 0.42
GACCAGCAAUAUUACGGUGU,-0.661 ± 0.055,-0.365 ± 0.084
AGAAAGCAAUAUUACGAACU,-0.0259 ± 0.096,0.00874 ± 0.12
UAUAAGCAAUAUUACGCGGA,-2.14 ± 0.18,-0.954 ± 0.16
CCCGAGCAAUAUUACGCCAU,-3.53 ± 0.35,-2.44 ± 0.33
CUAAAGCAAUAUUACGUCAU,-4.85 ± 0.31,-2.78 ± 0.23
AGCUAGCAAUAUUACGUCAU,-2.65 ± 0.1,-1.54 ± 0.1
UAUGAGCAAUAUUACGAGGA,–,-1.91 ± 0.27
GGCCAGCAAUAUUACGGUGC,-2.91 ± 0.12,-2.01 ± 0.11
AGUGAGCAAUAUUACGGAGC,-1.89 ± 0.18,-3.36 ± 0.33
CAUAAGCAAUAUUACGCGAG,-1.99 ± 0.097,-1.39 ± 0.085
CAGGAGCAAUAUUACGAUCU,–,-2.45 ± 0.45
UUAAAGCAAUAUUACGAGCG,-0.119 ± 0.086,0.287 ± 0.12
AGAUAGCAAUAUUACGGUAA,-1.79 ± 0.2,-1.34 ± 0.19
CGAGAGCAAUAUUACGUCAA,-3.22 ± 0.21,-2.4 ± 0.27
AGGGAGCAAUAUUACGCUGG,-4.26 ± 0.37,-1.67 ± 0.26

Sequence,self-splicing fitness (ln) (30 °C),self-splicing fitness (ln) (37 °C)
CCACAGCAAUAUUACGAACC,-3.86 ± 0.32,-2.46 ± 0.35
AUUUAGCAAUAUUACGUUGA,-1.32 ± 0.2,-2.27 ± 0.26
UUAGAGCAAUAUUACGAAUU,-1.77 ± 0.28,–
AAUCAGCAAUAUUACGUCAA,-0.952 ± 0.077,-0.614 ± 0.1
ACACAGCAAUAUUACGAGGG,-3.71 ± 0.11,-1.85 ± 0.1
UGGGAGCAAUAUUACGAAUU,–,-2.63 ± 0.28
GGUAAGCAAUAUUACGAGUG,-2 ± 0.16,-3.17 ± 0.13
UACCAGCAAUAUUACGUCAU,-2.21 ± 0.085,-1.52 ± 0.088
AUCUAGCAAUAUUACGGCGU,-0.0812 ± 0.084,0.429 ± 0.1
UGUUAGCAAUAUUACGCCUG,0.435 ± 0.13,0.171 ± 0.17
CCAUAGCAAUAUUACGCCGG,-2.5 ± 0.21,-3.15 ± 0.47
ACACAGCAAUAUUACGCCAG,-2.45 ± 0.1,-1.13 ± 0.13
UAAUAGCAAUAUUACGUCCG,-0.913 ± 0.23,-0.835 ± 0.2
CUCAAGCAAUAUUACGGUUA,-2.78 ± 0.2,-2.81 ± 0.2
UCAAAGCAAUAUUACGUAGG,-1.07 ± 0.072,-0.463 ± 0.096
CCGCAGCAAUAUUACGCAGU,-2.96 ± 0.18,-1.48 ± 0.17
CCCCAGCAAUAUUACGUGAU,-3.64 ± 0.11,-2.96 ± 0.18
UGAUAGCAAUAUUACGCCCA,0.955 ± 0.13,-0.0259 ± 0.17
AAUAAGCAAUAUUACGUUGA,-2.96 ± 0.22,-2.62 ± 0.2
UCUUAGCAAUAUUACGCUCG,-0.481 ± 0.25,-1.43 ± 0.44
CUCGAGCAAUAUUACGCAUG,-3.27 ± 0.2,-3.58 ± 0.42

# Reference: the supplement of paper PMC7877785
